We go through four molecules from US7387779B2, “Anti-angiogenic proteins and fragments and methods of use thereof” (Beth Israel Deaconess Medical Center, priority 1998, dated 2008).

In one assay the test system is PC-3 tumors. Kind of assay: PC-3 xenograft in athymic nude NCRNU mice (Example 46). Format: in vivo. As for the experimental part:
Tumstatin-44-131 was also tested for its ability to suppress tumor growth. Male athymic nude NCRNU mice, of 5-6 weeks of age and about 25 g, were implanted with […] approximately 2×10^6 PC-3 (prostate cancer carcinoma) cells into the dorsal subcutis. […] The tumors were allowed to grow to about 50 mm^3, and animals were then pair-matched into groups of 6 mice. Initial doses of protein or vehicle (PBS, control) were given on the day of pair-matching (Day 1). Tumstatin-44-131, Tum-5-125-C-A, or human endostatin in sterile PBS was intraperitoneally injected daily b.i.d. at doses ranging from 1 to 20 mg/kg for 20 days. Control animals received injection of PBS vehicle. In one treatment, continuous subcutaneous delivery of Tumstatin-44-131 was done using surgically implanted Alzet mini-pumps. The mice were weighed twice weekly, and tumor measurements were taken, starting on Day 1. Estimated mean tumor volumes were calculated, and at Day 21, the mice were weighed, sacrificed, and their tumors excised and examined by light microscopy and CD31 immunostaining. The mean treated tumor weight was divided by the mean control tumor weight was subtracted from one, and expressed as a percentage to give the tumor growth inhibition for each group.

For another assay, the system named is MLEC β3+/+. Description: Protein synthesis and cap-dependent translation in wild-type mouse lung endothelial cells. It is filed as cell-based. The conditions noted are these: 4.5 μM; rapamycin 100 ng/ml. An excerpt:
Therefore, to evaluate the effect of tumstatin peptides on cap-dependent and independent translation, endothelial cells were isolated from lungs of 12-week-old mice that were deficient in the expression of αvβ3 integrin (i.e., 3 integrin-deficient mice), and also their wild-type counterparts (Hodivala-Dilke, K. M. et al., 1999, J. Clin. Invest. 103:229-38). Briefly, ICAM-2 expressing MLEC were enriched using rat anti-mouse ICAM-2 (# 01800D, PharMingen, San Diego, Calif., USA) conjugated to magnetic beads (Dynabeads M-450, Dynal, Oslo, Norway). MLEC were maintained in 40% Ham's F-12,40% DME-Low Glucose, 20% FBS supplemented with heparin, endothelial mitogen (Biomedical Technologies, Inc., Cambridge, Mass., USA), glutamine and penicillin/streptomycin. Wild-type and β3-integrin-deficient mouse embryonic fibroblasts were prepared (Hodivala-Dilke, K. M. et al., 1999, J. Clin. Invest. 103:229-38). MEFs were maintained in DMEM containing 10% FBS. MLEC were characterized for homogeneity by morphological observations and by immunofluorescence staining for endothelial-specific markers. Cells between passage 3 and 6 were used for the experiments.

Assay [1] concerns 786-O (renal carcinoma) cells. Kind of assay: Proliferation of control cells, 3H-thymidine incorporation. Format: cell-based, human. The conditions noted are these: non-endothelial control; Canstatin up to 40 mg/ml, Tumstatin up to 20 mg/ml. As to the method:
(§1) C-PAE cells were grown to confluence in DMEM with 10% fetal calf serum (FCS) and kept contact inhibited for 48 hours. Control cells were 786-O (renal carcinoma) cells, PC-3 cells, HPEC cells, and A-498 (renal carcinoma) cells. Cells were harvested with trypsinization (Life Technologies/Gibco BRL, Gaithersburg, Md., USA) at 37° C. for five minutes. […] The cells were incubated for 24 hours at 37° C. with 5% CO2 and 95% humidity. Medium was removed and replaced with DMEM containing 0.5% FCS and 3 ng/ml bFGF (R&D Systems, Minneapolis, Minn., USA). Unstimulated controls received no bFGF. […] All wells received 1 μCurie of ^3H-thymidine at the time of treatment. After 24 hours, medium was removed and the wells were washed with PBS. Cells were extracted with 1N NaOH and added to a scintillation vial containing 4 ml of ScintiVerse II (Fisher Scientific, Pittsburgh, Pa., USA) solution. Thymidine incorporation was measured using a scintillation counter. The results are shown in FIGS. 3A and 3B, which are a pair of graphs showing incorporation of ^3H-thymidine into C-PAE cells treated with varying amounts of Arresten (FIG. 3A) or endostatin (FIG. 3B). Arresten appeared to inhibit thymidine incorporation in C-PAE as well as did endostatin. Behavior of control cells treated with Arresten and endostatin is also shown in FIG. 4A, 4B, 4C, and 4D, with Arresten having little effect on 786-O cells (FIG. 4A), PC-3 cells (FIG. 4B), or HPEC cells (FIG. 4C). Endostatin had little effect on A-498 cells (FIG. 4D). All groups in FIGS. 3 and 4 represent triplicate samples. […] (C-PAE) cells were grown to confluence in DMEM with 10% fetal calf serum (FCS) and kept contact inhibited for 48 hours. Cells were harvested by trypsinization (Life Technologies/Gibco BRL, Gaithersberg, Md., USA) at 37° C. for 5 minutes. […] The cells were incubated for 24 hours at 37° C. C. with 5% CO2 and 95% humidity. Medium was removed, and replaced with DMEM containing 0.5% FCS (unstimulated) or 10% FCS (stimulated and treated cells). 786-O, PC-3 and HEK 293 cells served as controls and were also grown to confluency, trypsinized and plated in the same manner. Cells were treated with concentrations of Canstatin or endostatin ranging from 0.025 to 40 mg/ml in triplicate. In thymidine incorporation experiments, all wells received […] of ^3H-thymidine at the time of treatment. After 24 hours, medium was removed and the wells were washed 3 times with PBS. Radioactivity was extracted with 1N NaOH and added to a scintillation vial containing 4 ml of ScintiVerse II (Fisher Scientific, Pittsburgh, Pa., USA) solution. Thymidine incorporation was measured using a scintillation counter. […]
Background: Incorporation of labelled thymidine or its analogues reports DNA synthesis.

For another assay, the system named is PC-3 cells. The description is as above. The following applies: non-endothelial control; Canstatin up to 40 mg/ml, Tumstatin up to 20 mg/ml. It is filed as cell-based, human. As for the experimental part:
as §1

B1: endostatin: tumor associated angiogenesis inhibitor used as comparator (protein, UniProt P39060 1572-1754, looked up)
Endostatin: HSHRDFQPVLHLVALNSPLSGGMRGIRGADFQCFQQARAVGLAGTFRAFLSSRLQDLYSIVRRADRAAVPIVNLKDELLFPSWEALFSGSEGPLKPGARIFSFDGKDVLRHPTWPQKSVWHGSDPNGRRLTESYCETWRTEAPSATGQASSLLGGRLLGQSAASCHHAYIVLCIENSFMTASK
modifications: Endostatin
For the molecule B1, in the assay with PC-3 tumors (20 mg/kg b.i.d., bolus injection), the tumor growth inhibition result was “no significant tumor growth inhibition”. Moreover, the “protein synthesis / cap-dependent translation in control (β3+/+) endothelial cells” value in the assay on MLEC β3+/+ was “did not exhibit this property”.

B2: Tumstatin: NC1 domain of the α3 chain of type IV collagen, residues 1-244 (SEQ ID NO:10) (protein, listed as Homo sapiens)
chain: GLKGKRGDSGSPATWTTRGFVFTRHSQTTAIPSCPEGTVPLYSGFSFLFVQGNQRAHGQDLGTLGSCLQRFTTMPFLFCNVNDVCNFASRNDYSYWLSTPALMPMNMAPITGRALEPYISRCTVCEGPAIAIAVHSQTTDIPPCPHGWISLWKGFSFIMFTSAGSEGTGQALASPGSCLEEFRASPFLECHGRGTCNYYSNSYSFWLASLNPERMFRKPIPSTVKAGELEKIISRCQVCMKKRH
In the case of B2, the effect on proliferation entry (in assay [1]; in the assay on PC-3 cells) was “no significant anti-proliferative effect” in each case. The “protein synthesis / cap-dependent translation in control (β3+/+) endothelial cells” value with MLEC β3+/+ is recorded as “inhibited protein synthesis”.

B3: Tumstatin-44-131: residues 44 to 131 of full-length Tumstatin (SEQ ID NO:33) (protein)
chain: FSFLFVQGNQRAHGQDLGTLGSCLQRFTTMPFLFCNVNDVCNFASRNDYSYWLSTPALMPMNMAPITGRALEPYISRCTVCEGPAIAI
modifications: Tumstatin-45-132 (amino acids 45-132 of SEQ ID NO10)
Regarding B3, the tumor growth inhibition stood at 74.1% with PC-3 tumors (1 mg/kg i.p. b.i.d., 20 days) and 70.1% with PC-3 tumors (continuous delivery via Alzet mini-pump, 1 mg/kg over 24 hours).

B4: Canstatin: NC1 domain of the α2 chain of Type IV collagen (SEQ ID NO:6) (protein, listed as Homo sapiens)
chain: VSIGYLLVKHSQTDQEPMCPVGMNKLWSGYSLLYFEGQEKAHNQDLGLAGSCLARFSTMPFLYCNPGDVCYYASRNDKSYWLSTTAPLPMMPVAEDEIKPYISRCSVCEAPAIAIAVHSQDVSIPHCPAGWRSLWIGYSFLMHTAAGDEGGGQSLVSPGSCLEDFRATPFIECNGGRGTCHYYANKYSFWLTTIPEQSFQGSPSADTLKAGLIRTHISRCQVCMKNL
Turning to B4, the effect on proliferation entry (in assay [1]; with PC-3 cells) was “No significant effect” in each case.
